Source: PMC9628480, “Discovery and structural characterization of chicoric acid as a SARS-CoV-2 nucleocapsid protein ligand and RNA binding disruptor”

Experiments:
N protein CTD = N protein CTD (SARS-CoV-2, UniProt A0A6B9VLF5 250-364); test: fluorescence polarization; conditions: protein: recombinant; tags: SUMO tag (pET-SUMO) cleaved; chain copies: 2; label: 5'-FITC; hairpin
N protein NTD = N protein NTD (SARS-CoV-2, UniProt A0A6B9VLF5 43-174); test: fluorescence polarization; conditions: protein: recombinant; tags: SUMO tag (pET-SUMO) cleaved; label: 5'-FITC; hairpin

CACUCACUGUCUUUUUUGAUGGUAGAGU (structured_RNA) [RNA1]: no binding (N protein CTD); no binding (N protein NTD).
